Test results reported in article PMC9440762, “Anti-Stokes fluorescence excitation reveals conformational mobility of the C-phycocyanin chromophores” (Structural Dynamics, 2022).

T1: C-phycocyanin β subunit from Arthrospira platensis (Arthrospira platensis (Spirulina), UniProt P72508 1-172, phycocyanobilin covalently bound to the cysteines at positions 82 and 153)
T1 construct: C-phycocyanin β subunit, Arthrospira platensis (Spirulina); also called β C-PC chain
T1 sequence (looked up): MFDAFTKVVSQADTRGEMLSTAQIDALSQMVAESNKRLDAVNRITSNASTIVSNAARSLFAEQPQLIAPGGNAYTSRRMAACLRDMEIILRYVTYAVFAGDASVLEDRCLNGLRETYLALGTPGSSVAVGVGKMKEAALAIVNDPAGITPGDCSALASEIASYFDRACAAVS


Legend:
[1] = target: T1, C-phycocyanin β subunit from …; experiment: SEC; preparative Superdex 200 26/600, 20 mM Tris-HCl pH 7.6, 150 mM NaCl; fractions of the main peak analysed by SDS-PAGE; details: both partners purified
[2] = target: the molecule itself; experiment: SAXS; C-PC in solution at 150 mM NaCl; fits with trimer and hexamer models, MW estimate, ab initio shape by GASBOR; also at 4, 6 and 8 M urea (decrease in the oligomeric state, partial dissociation of trimers)

Binder	binding result [1]	stoichiometry N [2]
C-phycocyanin α subunit from Arthrospira platensis (natural protein, phycocyanobilin covalently bound to the cysteine at position 84, C-phycocyanin α subunit, Arthrospira platensis (Spirulina); also called α C-PC chain) not shown	binds	–
C-phycocyanin αβ monomer (heterodimer of the α and β subunits) from Arthrospira platensis (complex, phycocyanobilin covalently bound to the cysteine at position 84 | phycocyanobilin covalently bound to the cysteines at positions 82 and 153, C-phycocyanin α subunit, Arthrospira platensis (Spirulina); band of apparent MW 16 or 18 kDa on SDS-PAGE; C-phycocyanin β subunit, Arthrospira platensis (Spirulina); The unit that associates with itself into the (αβ)3 trimer; Linker polypeptides are absent from the preparation; also called C-PC; PC) chain 1: not shown chain 2: MFDAFTKVVSQADTRGEMLSTAQIDALSQMVAESNKRLDAVNRITSNASTIVSNAARSLFAEQPQLIAPGGNAYTSRRMAACLRDMEIILRYVTYAVFAGDASVLEDRCLNGLRETYLALGTPGSSVAVGVGKMKEAALAIVNDPAGITPGDCSALASEIASYFDRACAAVS	–	3
